In test [1] the target is c-Met (human), P08581. In words: cell-based or functional assay.
The target in test [2] is c-Met (human) (UniProt P08581). Kind of test: cell-based or functional assay.
Sequence of c-Met (human) (P08581 25-1390): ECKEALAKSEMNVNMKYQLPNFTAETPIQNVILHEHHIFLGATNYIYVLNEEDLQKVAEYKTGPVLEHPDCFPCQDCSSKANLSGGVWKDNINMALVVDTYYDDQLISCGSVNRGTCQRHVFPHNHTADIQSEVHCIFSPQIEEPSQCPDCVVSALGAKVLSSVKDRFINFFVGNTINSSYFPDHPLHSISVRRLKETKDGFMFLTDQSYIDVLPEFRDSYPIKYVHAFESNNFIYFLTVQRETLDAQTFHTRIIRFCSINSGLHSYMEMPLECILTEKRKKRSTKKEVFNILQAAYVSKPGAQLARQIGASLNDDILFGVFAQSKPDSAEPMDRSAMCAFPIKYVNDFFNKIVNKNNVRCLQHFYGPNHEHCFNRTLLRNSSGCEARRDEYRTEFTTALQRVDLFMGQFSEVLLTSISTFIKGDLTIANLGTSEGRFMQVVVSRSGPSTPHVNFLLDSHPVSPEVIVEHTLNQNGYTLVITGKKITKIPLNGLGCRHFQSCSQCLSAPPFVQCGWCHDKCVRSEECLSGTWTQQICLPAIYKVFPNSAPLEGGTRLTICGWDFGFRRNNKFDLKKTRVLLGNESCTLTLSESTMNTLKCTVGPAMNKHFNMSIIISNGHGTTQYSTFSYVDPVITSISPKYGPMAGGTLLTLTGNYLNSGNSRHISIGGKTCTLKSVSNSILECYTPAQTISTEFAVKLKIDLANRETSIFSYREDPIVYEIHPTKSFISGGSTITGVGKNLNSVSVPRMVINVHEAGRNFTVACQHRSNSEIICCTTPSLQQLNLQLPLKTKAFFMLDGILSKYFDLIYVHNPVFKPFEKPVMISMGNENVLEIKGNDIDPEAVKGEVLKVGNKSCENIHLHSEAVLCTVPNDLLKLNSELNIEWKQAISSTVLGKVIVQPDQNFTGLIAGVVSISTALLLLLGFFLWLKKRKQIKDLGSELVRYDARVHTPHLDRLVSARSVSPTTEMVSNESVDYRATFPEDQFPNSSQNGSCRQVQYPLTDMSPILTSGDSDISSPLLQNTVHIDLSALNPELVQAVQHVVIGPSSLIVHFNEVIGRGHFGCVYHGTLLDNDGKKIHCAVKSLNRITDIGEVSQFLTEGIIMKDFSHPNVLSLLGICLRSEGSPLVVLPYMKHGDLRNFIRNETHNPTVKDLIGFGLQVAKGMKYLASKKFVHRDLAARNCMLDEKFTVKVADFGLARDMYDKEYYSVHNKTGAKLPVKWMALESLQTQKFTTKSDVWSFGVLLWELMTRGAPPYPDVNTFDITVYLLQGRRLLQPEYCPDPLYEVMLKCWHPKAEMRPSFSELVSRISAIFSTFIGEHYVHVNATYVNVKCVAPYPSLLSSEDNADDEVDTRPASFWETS

Sequence of c-Met (human), P08581 (P08581 25-1390): as above

B1: Ab#5 (bispecific antibody, human IgG1, kappa)
heavy: QLQLQESGPGLVKPSETLSLTCTVSGGSISSSVYYWSWIRQPPGKGLEWIGVIYPSGNTYYSPSLKSRVTISVDTSKNQFSLKLSSVTAADTAVYYCARTIYDLFDIWGQGTMVTVSSASTKGPSVFPLAPSSKSTSGGTAALGCLVKDYFPEPVTVSWNSGALTSGVHTFPAVLQSSGLYSLSSVVTVPSSSLGTQTYICNVNHKPSNTKVDKKVEPKSCDKTHTCPSCPAPEFLGGPSVFLFPPKPKDTLMISRTPEVTCVVVDVSQEDPEVQFNWYVDGVEVHNAKTKPREEQFNSKYRVVSVLTVLHQDWLNGKEYKCKVSNKGLPSSIEKTISKAKGQPREPQVYTLPPSREEMTKNQVSLSCAVKGFYPSDIAVEWESNGQPENNYKTTPPVLDSDGSFFLVSKLTVDKSRWQQGNVFSCSVMHEALHNHYTQKSLSLSKSCDKTGGGGSGGGGSGGGGSGGGGSGGGGSGGGGSGGGGSGGGGSCPSCPAPEFLGGPSVFLFPPKPKDTLMISRTPEVTCVVVDVSQEDPEVQFNWYVDGVEVHNAKTKPREEQFNSDYRVVSVLTVLHQDWLNGKEYKCKVSNKGLPSSIEKTISKAKGQPREPQVYTLPPSREEMTKNQVSLWCLVKGFYPSDIAVEWESNGQPENNYKTTPPVLDSDGSFFLYSKLTVDKSRWQQGNVFSCSVMHEALHNHYTQKSLSLSGECGGGGSGGGGSDIVMTQSPLSLPVTPGEPASISCRSTKSLLHSNGITYLYWYLQKPGQSPQLLIYQMSNLASGVPDRFSSSGSGTDFTLKISRVEAEDEGVYYCAQNLEIPRTFGGGTKLEIKRTGGGGSGGGGSGGGGSGGGGSQVQLVQSGAEVKKPGESVKISCKASGYTFTNYGMNWVRQAPGQGLKWMGWINTYTGESTYADDFKGRFAFSLDTSASTAYLQLSSLRSEDTAVYFCARFAIKGDYWGQGTLVTVSS
light: DIQMTQSPSSVSASVGDRVTITCRASQGISSWLAWYQQKPGKAPKLLIYAASSLQSGVPSRFSGSGSGTDFTLTISSLQPEDFATYYCLQANSFPPTFGGGTKVEIKRTVAAPSVFIFPPSDEQLKSGTASVVCLLNNFYPREAKVQWKVDNALQSGNSQESVTEQDSKDSTYSLSSTLTLSKADYEKHKVYACEVTHQGLSSPVTKSFNRGEC
Turning to B1, in test [1], the c-Met degradation (total c-Met ELISA, 24 h), A549 cells was under 20% and the reduction of c-Met expression (total c-Met ELISA, 24 h), NCI-H2170 cells was 65%.

B2: OA-5D5 (antibody, part only; not given: constant regions and Fc knob chain, V domains shown, not shown: another chain or arm of the molecule; a dimerising Fc or GST)
VH: EVQLVESGGGLVQPGGSLRLSCAASGYTFTSYWLHWVRQAPGKGLEWVGMIDPSNSDTRFNPNFKDRFTISADTSKNTAYLQMNSLRAEDTAVYYCATYRSYVTPLDYWGQGTLVTVSS
VL: DIQMTQSPSSLSASVGDRVTITCKSSQSLLYTSSQKNYLAWYQQKPGKAPKLLIYWASTRESGVPSRFSGSGSGTDFTLTISSLQPEDFATYYCQQYYAYPWTFGQGTKVEIK
Regarding B2, in test [2], the c-Met degradation (total c-Met ELISA, 24 h), A549 cells was under 20% and the reduction of c-Met expression (total c-Met ELISA, 24 h), NCI-H2170 cells was 30%.

Source of the values: patent publication US20140302035A1.
